Reference: PMC8325870, “SUMOylated non-canonical polycomb PRC1.6 complex as a prerequisite for recruitment of transcription factor RBPJ”

Target: RBPJ wt (UniProt P31266 1-526)
Experiment: EMSA; anti-Flag supershift; 10 mM Tris-HCl pH 7.5, 100 mM NaCl, 0.1 mM EDTA, 0.5 mM DTT, 4% glycerol, 10 ng poly(dI-dC), ~0.5 ng 32P-oligo, 2 or 4 ul reticulocyte lysate; temperature not stated
Details: protein: ivt; tags: Flag; label: 32P; 5' overhang 4 nt at both ends (CCTG on F, CTCG on R)

Chain of RBPJ wt (P31266 whole entry): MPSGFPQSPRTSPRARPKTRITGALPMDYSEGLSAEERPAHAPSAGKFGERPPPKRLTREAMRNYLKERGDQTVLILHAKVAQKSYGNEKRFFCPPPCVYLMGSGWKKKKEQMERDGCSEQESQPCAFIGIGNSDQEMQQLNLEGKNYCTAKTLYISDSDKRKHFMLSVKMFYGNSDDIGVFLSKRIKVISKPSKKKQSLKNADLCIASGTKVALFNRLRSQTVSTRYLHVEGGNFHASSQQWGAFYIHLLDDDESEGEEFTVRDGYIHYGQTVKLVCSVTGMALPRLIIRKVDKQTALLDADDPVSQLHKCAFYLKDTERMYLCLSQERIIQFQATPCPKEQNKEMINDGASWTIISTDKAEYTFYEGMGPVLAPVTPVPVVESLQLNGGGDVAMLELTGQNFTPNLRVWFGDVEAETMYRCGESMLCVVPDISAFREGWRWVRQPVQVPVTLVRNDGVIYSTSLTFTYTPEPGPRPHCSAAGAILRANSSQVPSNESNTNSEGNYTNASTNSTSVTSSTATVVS

B1: FO-233F/FO-233R (EBV TP-1 promoter, two RBPJ sites) (dsDNA)
DNA 1: CCTGGAACTATTTTCCCACGGTGCCCTTCCGCCCATTTTCCCACGAGTCG
DNA 2: CTCGCGACTCGTGGGAAAATGGGCGGAAGGGCACCGTGGGAAAATAGTTC
B1: binds.
